The text below walks through data of the supplement of paper PMC12764529.

± gives the half width of the 95% confidence interval.

Data set [1] is described as follows: folding stability dG unfold from chymotrypsin proteolysis; higher = more stable. An outline of the steps: (§1)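 Designed mini-proteins with no cysteine and under 80 residues were kept only if AlphaFold2 dimer inter-PAE was above 15. In a PA-tagged cDNA display construct, they were digested with trypsin and chymotrypsin and then sequenced. K50 was inferred by Bayesian fitting of counts, and unfolding free energy was derived per protease or combined against a sequence-predicted unfolded-state K50 and a shared folded-state K50.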

Data set [2] can be described thus: folding stability dG unfold from trypsin proteolysis; higher = more stable. An outline of the steps: as §1
The nature of data set [3]: folding stability dG unfold (combined trypsin and chymotrypsin); higher = more stable. In a few lines: as §1

In the case of “MRITLEHPDIKRLTIEFRPMPDGYFRMDIKVERPDGKPVPIPFPMRYEDGKMTPEMMEQMIDEAVEEALADS [r1_124_TrROS]”, the “folding stability dG unfold” value in data set [1] came out at 0.617 ± 0.2 kcal/mol; in data set [2], 0.608 ± 0.077 kcal/mol; in data set [3] it was 0.689 ± 0.21 kcal/mol.
Turning to “MRLYLVKVEIRREEVDPETGEVREEKLELTVLVREEDEEALEKAEELARKLAEEEGIKEVKVEVVELPAEES [r1_346_TrROS_Hall]”, the “folding stability dG unfold” value in data set [1] came out at 2.62 ± 0.079 kcal/mol; in data set [2] it was 2.3 ± 0.09 kcal/mol; in data set [3], 2.47 ± 0.25 kcal/mol.
As for “MTKKTVTLPIPEPIRAAIEAGKPLPLEEIVDLVRDVVAKELGFKDVKVLSVEIKPLPNGEIVVEVTVEFPES [r1_290_TrMRF]”, the results for the “folding stability dG unfold” value in data set [1], in data set [2] and in data set [3] were 2.79 ± 0.16 kcal/mol, 3.09 ± 0.28 kcal/mol and 2.89 ± 0.23 kcal/mol, respectively.
On the same counts, the results for “MTLLIPLPPAFPDLTPEQVLDLLRELFLSPDEEATAEENPETGSVTVTVRRGDEEYVFTFYPDGYLVLEPGS [r1_131_TrMRF]” are 2.799 ± 0.016 kcal/mol, 2.85 ± 0.04 kcal/mol and 2.83 ± 0.04 kcal/mol.
In the case of “MTVTVPPDGTVTITLTDPSGNTYTFTIPVTDPAELRARLEEAIRELFPEFEDIPVRVVAVDGPAVVVEVPLS [r1_389_JUSTAS]”, the “folding stability dG unfold” value in data set [1] worked out at 3.12 ± 0.036 kcal/mol; in data set [2], 3.02 ± 0.12 kcal/mol; in data set [3], 3.1 ± 0.086 kcal/mol.
On the same counts, the results for “MVAVFEFTFKSEEELLEAAEEVARRLAAELGLPEEELEKIPIEVEVEEIGNEDGEKEYKLTIRFGFPEEFLS [r1_81_TrMRF]” are 3.92 ± 0.05 kcal/mol, 3.51 ± 0.13 kcal/mol and 3.83 ± 0.13 kcal/mol.
On the same counts, the results for “MVLDAGISRKDFINNKPIKVETALKKLAEILGGPNFKPKVKPSKKDYLVAVIELPDGRKLLLKDDKDIKISS [r1_168_TrMRF]” are -0.108 ± 0.14 kcal/mol, 0.514 ± 0.12 kcal/mol and 0.377 ± 0.14 kcal/mol.
On the same counts, the results for “MVLKVTIEITVTHPANPGKTEKLTIVVEAPTLEEALAAALEEIRRRLGLPPGAKVTVKVTVELVELPEEDLS [r1_149_TrROS_Hall]” are 5.63 ± 0.18 kcal/mol, 4.5 ± 0.18 kcal/mol and 5.99 ± 0.5 kcal/mol.
“NKRIKIFIGGDDPSMAEQIQQWLQDNGYNVEVHVFTSPEDMKKAREWAEQNDIVIVIQVPPPPPKDPGDNNS [r1_497_TrROS]”: the “folding stability dG unfold” value was determined as 3.487 ± 0.024 kcal/mol in data set [1], 2.48 ± 0.12 kcal/mol in data set [2] and 3.3 ± 0.074 kcal/mol in data set [3].
Taken in the same sequence, the figures for “NWYIDIDEIKEAINDAPPGDEVELPFKFYDPDDGQKFKFRVTVEVNPNGKLTSVRIQHPGSGKPHAEINLKS [r1_165_TrROS]” were 1.25 ± 0.13 kcal/mol, 0.636 ± 0.07 kcal/mol and 0.982 ± 0.11 kcal/mol.
Taken in the same sequence, the figures for “PEKVILVEVPAGEELTEEELKELAEALGLEVEIEKVKVTVTVTVEVTLPDGKKVKVETTETRTVVLVTVKDS [r1_238_TrROS_Hall]” were 3.42 ± 0.14 kcal/mol, 2.66 ± 0.077 kcal/mol and 3.16 ± 0.14 kcal/mol.
On the same counts, the results for “PFRVMVDLERDPEDGWYKVTIMVQAKDGRPITPELIENAAREIFKQGFPIKKIKLEPYPNGYVHFKIEIPLS [r1_408_TrROS]” are 2.88 ± 0.037 kcal/mol, 2.15 ± 0.035 kcal/mol and 2.65 ± 0.064 kcal/mol.
For the sequence “PKEIIEFAKKNGFKVKIEPVKVGSEEKAKKLAEEIKKKNNGKVFIIKNPKTGEAVYRIEIYPLKVPKNKKLS [r1_179_TrMRF]”, the “folding stability dG unfold” value in data set [1] stood at 2.1 ± 0.22 kcal/mol; in data set [2], 1.37 ± 0.14 kcal/mol; in data set [3], 1.9 ± 0.43 kcal/mol.
Taken in the same sequence, the figures for “PKIEITRVEYHPNEGYYRVTVKLPGKDVSIYMGPENGMMQVYFPGNGREREFPFDSMDDAVDRAKELLKERS [r1_177_TrROS]” were 1.55 ± 0.11 kcal/mol, 1.33 ± 0.12 kcal/mol and 1.23 ± 0.28 kcal/mol.
Regarding “PLTFPALVRNPLEDRWEEVTVTLHPDGTLTVTHRGRPLASVRVVTRPPPEVELVPVRDADGVERLGLRTRGS [r1_496_TrMRF]”, the “folding stability dG unfold” value was found to be 1.21 ± 0.08 kcal/mol in data set [1], 0.346 ± 0.071 kcal/mol in data set [2] and 0.964 ± 0.074 kcal/mol in data set [3].
Taken in the same sequence, the figures for “PNMKMEWIQIPPGDLNDPVKIEAPLPPGTQIMIWVHDNGNGEWRPIFTVNNDEITIKNLPDADHVWVWVIKS [r1_224_TrROS]” were 2.71 ± 0.1 kcal/mol, 1.83 ± 0.13 kcal/mol and 2.47 ± 0.28 kcal/mol.
For “PPPDVPVETETKTSTSTLPDGSRLTTTTTTTRAPNGYYYDTTSVTTTVAPDGTVTTTSTSTTKGPLPAALLS [r1_129_JUSTAS]”, the “folding stability dG unfold” value in data set [1] stood at 1.51 ± 0.072 kcal/mol; in data set [2] it was 1.81 ± 0.12 kcal/mol; in data set [3] it was 1.5 ± 0.27 kcal/mol.
“PPTSPEFRKALENIKKVDIEIEPYPNDGMVRMSIELKFPDKPVEIDIHYQYDPDGKINGMWARLDGKWIPIS [r1_274_TrROS]”: the figures for the “folding stability dG unfold” value in data set [1], in data set [2] and in data set [3] were 1.99 ± 0.079 kcal/mol, 1.1 ± 0.091 kcal/mol and 1.85 ± 0.2 kcal/mol, respectively.
On the same counts, the results for “PWRPIMITVRANPNLKVDIYPPNGPQEEIPVDSPEDALKKAQKLLPPNYPIMVKVQNEGKPIATFPFWIPPS [r1_276_TrROS]” are 2.41 ± 0.14 kcal/mol, 2.84 ± 0.36 kcal/mol and 2.61 ± 0.52 kcal/mol.
On the same counts, the results for “QRTVYIPIRGMPPDQMVDMIRMALRQAREKGHPNRTIRIWMPGPPEQRERARRYIKELADEPGLNVTIEGWS [r1_387_TrROS]” are 1.85 ± 0.08 kcal/mol, 1.71 ± 0.029 kcal/mol and 1.84 ± 0.055 kcal/mol.
Taken in the same sequence, the figures for “RKIEINIWRNENHWYVRIKLEHPDGKEQELMFPMDSWDEAREFIRGILANLPPNNVKIEDIEIYPPNGQPIS [r1_169_TrROS]” were 4.329 ± 0.023 kcal/mol, 2.85 ± 0.076 kcal/mol and 3.87 ± 0.069 kcal/mol.
For “SAAAAVAAAVAATLEALLPPGYRITAVTAEVAPDGTVTIPVTVEGPDGVPTLVVVTVDLATGEITVTVFGSA [r9_219_TrMRF]”, the “folding stability dG unfold” value in data set [1] turned out to be 4.63 ± 0.21 kcal/mol; in data set [2], 3.17 ± 0.16 kcal/mol; in data set [3] it was 4.22 ± 0.22 kcal/mol.
On the same counts, the results for “SAAEIDEDGTIRIVLSEEAVKNMSEEELKALAEELAKLLPPGAKVEIKIVKPKPVKEEKKLYDKDGKEVSAG [r14_312_TrROS_Hall]” are 0.0971 ± 0.054 kcal/mol, 1.19 ± 0.083 kcal/mol and 0.788 ± 0.15 kcal/mol.
On the same counts, the results for “SAAMLFEKKTGIKVDVSLVPPEQISQLPPSYTVTPEGDVVVVTTVTTLPLSSYPVKLPPVYDPNTLKLLSAG [r14_126_JUSTAS]” are -0.376 ± 0.19 kcal/mol, 0.146 ± 0.12 kcal/mol and -0.0133 ± 0.11 kcal/mol.
Regarding “SAAPADNPVLVATLTVTVTRPVSFTSPDGSTGTVPETETRTLVLVADAGNDPEALERALELARRLAETVSAG [r14_830_TrMRF]”, the “folding stability dG unfold” value in data set [1] came out at 4.04 ± 0.076 kcal/mol; in data set [2] it was 2.73 ± 0.076 kcal/mol; in data set [3], 3.51 ± 0.099 kcal/mol.
Taken in the same sequence, the figures for “SAAPGAEVIEEKEIEVGGYTVTIVYNKDTDTVTIFVRNPDGTITEFTIDADTLEITEVREIKLPPGVELSAG [r14_676_TrROS_Hall]” were 3.35 ± 0.06 kcal/mol, 2.24 ± 0.084 kcal/mol and 3 ± 0.12 kcal/mol.
On the same counts, the results for “SAATLPPGTKVLTLTVTVRVPPGVSVEDLAAALAAELRRRLGPGAKITVTVTYDPETDTLTVTVTVVLPPSA [r9_657_TrROS_Hall]” are 4.66 ± 0.078 kcal/mol, 3.53 ± 0.091 kcal/mol and 4.38 ± 0.081 kcal/mol.
On the same counts, the results for “SAAVITLETENVTATSTLLEDGSVLVDVVEFYEDGYVSVVKAVIGPDGEIKVVERVVFPVPPPVPPPDASAG [r14_42_TrMRF]” are 2.3 ± 0.094 kcal/mol, 2.49 ± 0.094 kcal/mol and 2.36 ± 0.18 kcal/mol.
In the case of “SAAVPSDLTLTTLETKKEKFDDNEYTVVKSVLLRPGAPGATVTEYTTVYKGDKVVETKPSERTVSPALLSAG [r14_651_JUSTAS]”, the “folding stability dG unfold” value in data set [1] is 0.209 ± 0.13 kcal/mol; in data set [2], -0.897 ± 0.27 kcal/mol; in data set [3] it was -0.0404 ± 0.15 kcal/mol.
Taken in the same sequence, the figures for “SADIKIDDIETQENPDGYEWYMITINFPDPKKFKEKLKKHGVNPEWDPNDPDQVEIWFPREDIQEILKLSAG [r14_777_TrROS]” were 0.884 ± 0.28 kcal/mol, 0.328 ± 0.21 kcal/mol and 0.665 ± 0.36 kcal/mol.
On the same counts, the results for “SADMVMFPMTGEFHFPGWRIKVEITLMFHFTPNGKFGPNFHPMIKIEIVPPPPPPKITEEEADKANENGSAG [r14_442_TrROS]” are 4.13 ± 0.19 kcal/mol, 3.03 ± 0.22 kcal/mol and 3.59 ± 0.26 kcal/mol.
On the same counts, the results for “SADPNYHYKYKIKIEIAWFPPDDLEKLPPGMIMIPFDDHWIMIVIKLEPVEREPPPPPPEYDPETGDWKSAG [r14_126_TrROS]” are 3.38 ± 0.17 kcal/mol, 2.5 ± 0.43 kcal/mol and 3.23 ± 0.46 kcal/mol.
For “SADSVPIKLTFTFEVPEEIYEAAVKAIEDIFKDLGLEVEFEAKAEPGEEGVKVTVELNLTIPPNNPNLISAG [r14_76_TrMRF]”, the “folding stability dG unfold” value in data set [1] was determined as 3.31 ± 0.096 kcal/mol; in data set [2], 2.44 ± 0.2 kcal/mol; in data set [3], 3.07 ± 0.16 kcal/mol.
On the same counts, the results for “SADVVVIHARSPEELRAALEEARKEGKTVRIVVSREELDELKALLPEDVKIEVLKNENGEELVVIEVKVSAG [r14_127_TrROS_Hall]” are 3.11 ± 0.28 kcal/mol, 4.32 ± 0.23 kcal/mol and 4.15 ± 0.43 kcal/mol.
Take “SAEEAAKNFKPIRIRLRDPRGRLYEVERIELTPDGRLLITLRLPNETRTYLIEPDHPFPLPPDLIIEVEGSA [r9_993_TrMRF]”: the “folding stability dG unfold” value in data set [1] came to 3.59 ± 0.043 kcal/mol; in data set [2], 2.74 ± 0.049 kcal/mol; in data set [3] it was 3.34 ± 0.08 kcal/mol.
Taken in the same sequence, the figures for “SAEEEEVVEVELEIEIEMTPEELEELIEALRKAAEELGFEIEDIEIRVERKEDGTLRVTIRVKIRLPKPSAG [r14_109_TrROS_Hall]” were 4.69 ± 0.48 kcal/mol, 3.68 ± 0.13 kcal/mol and 4.2 ± 0.23 kcal/mol.
